Data taken from patent US20200031952A1 (CLOSED JOINT STOCK COMPANY BIOCAD, published 2020).

B1: BCD109 (antibody, V domains shown)
VH: QVQLVQSGGGLVQAGGSLRLSCAASGGTFATSPMGWLRQAPGKGTEFVAAISPSGGDRIYADSVKGRFTISRDNAGYFIYLQMNSLKPEDTAVYYCAVRRRFDGTSYYTGDYDSWGQGTLVTVSS
VL: EIVLTQSPGTLSLSPGERATLSCRASQSVSSSYLAWYQQKPGQAPRLLIYDASSRATGIPDRFSGSGSGTDFTLTISRLEPEDFAVYYCQQYSYSPVTFGQGTKVEIKR
notes: IgG1, transiently expressed; also called BCD109 antibody; BCD109 candidate; copies: 2 + 2

What was measured:
human IL-17A [1] = target: T1, human IL-17A (human, UniProt Q16552 24-155, limits assumed); assay: cell-based or functional assay
T1 construct: Used as analyte in the Octet tests, as immobilised antigen in ELISA and as cytokine in the HT1080 cell test; also called human recombinant IL-17A; Interleukin 17

monkey IL-17A [2] = target: T2, monkey IL-17A (monkey); assay: BLI (OctetRed 96), BCD109 on AR2G sensors, 1:1 model; analyte 17,2 nM (heading: 'Macaque ... IL17 Fc'); Full R^2 0,753773
T2 chain: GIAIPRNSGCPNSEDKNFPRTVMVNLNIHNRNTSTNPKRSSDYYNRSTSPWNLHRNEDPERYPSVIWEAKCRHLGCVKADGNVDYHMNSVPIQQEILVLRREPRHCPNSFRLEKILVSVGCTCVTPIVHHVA
Description: (§1) The test was conducted at a temperature of 30° C. and using PBS with 0.1% Tween-20 and 0.1% BSA as a working buffer.
(§2) Binding curves (after subtracting a reference signal) were analyzed using Octet Data Analysis software (Version 7.0) in accordance with the standard procedure and using 1:1 interaction model.

human IL-17A [3] = target: T1, human IL-17A; assay: BLI (OctetRed 96), BCD109 on AR2G sensors, 1:1 model; analyte 34,3 nM (heading: 'Human ... IL17 Fc'); Full R^2 0,744563
Description: as §1, §2

human IL-17A [4] = target: T1, human IL-17A; assay: BLI (OctetRed 96), BCD109 on AR2G sensors, 1:1 model; analyte 68,6 nM (heading: 'Human ... IL17 Fc'); Full R^2 0,383582
Description: as §1, §2

monkey IL-17A [5] = target: T2, monkey IL-17A; assay: BLI (OctetRed 96), BCD109 on AR2G sensors, 1:1 model; analyte 68,7 nM (heading: 'Macaque ... IL17 Fc'); Full R^2 0,672159
Description: as §1, §2

monkey IL-17A [6] = target: T2, monkey IL-17A; assay: BLI (OctetRed 96), BCD109 on AR2G sensors, 1:1 model; analyte 34,4 nM (heading: 'Macaque ... IL17 Fc'); Full R^2 0,061979
Description: as §1, §2

rat IL-17A = target: T3, rat IL-17A (rat, UniProt Q61453 18-150, limits assumed); assay: BLI (OctetRed 96), BCD109 immobilised on AR2G sensors, IL-17A as analyte
T3 sequence (looked up): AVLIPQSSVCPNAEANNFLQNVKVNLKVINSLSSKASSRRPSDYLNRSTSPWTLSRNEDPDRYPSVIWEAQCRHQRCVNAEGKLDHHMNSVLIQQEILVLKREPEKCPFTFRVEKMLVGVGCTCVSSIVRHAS
Description: as §1, §2

human IL-17A [7] = target: T1, human IL-17A; assay: BLI (OctetRed 96), BCD109 on AR2G sensors, 1:1 model; analyte 17,1 nM (heading: 'Human ... IL17 Fc'); Full R^2 0,775434
Description: as §1, §2

Row | Molecule | IC50, picomole as defined by the cell IL6 test (human IL-17A [1]) [picomole] | Kd (monkey IL-17A [2]) [pM] | Kd (human IL-17A [3]) [pM] | Kd (human IL-17A [4]) [pM] | Kd (monkey IL-17A [5]) [pM] | Kd (monkey IL-17A [6]) [pM] | binding result (rat IL-17A) | Kd (human IL-17A [7]) [pM]
1 | AIN457 (anti-IL-17A antibody by Novartis) | 1100 | – | – | – | – | – | – | –
2 | B1 | – | < 1 | < 1 | < 1 | < 1 | < 1 | no binding (tested: 126 nM to 2 nM titrated) | 4.4
